In US7271245B2, “Methods and compositions for inhibition of metastasis” (The Scripps Research Institute, priority 2004, dated 2007):

Experiments:
tumor cell integrin αvβ3 = target: T1, tumor cell integrin αvβ3 (Homo sapiens, UniProt P05106+P06756); assay: Flow cytometry, scFv binding to BMS cells in fresh human plasma; details: saturable binding
T1 construct: Primary metastatic cells from blood samples of stage IV breast cancer patients (BCM1, BCM2, BMS) were isolated; endogenous in cells; host or cells: BMS cells (primary metastatic breast cancer cells from patient blood)
T1 sequence (P06756 31-889 limits assumed): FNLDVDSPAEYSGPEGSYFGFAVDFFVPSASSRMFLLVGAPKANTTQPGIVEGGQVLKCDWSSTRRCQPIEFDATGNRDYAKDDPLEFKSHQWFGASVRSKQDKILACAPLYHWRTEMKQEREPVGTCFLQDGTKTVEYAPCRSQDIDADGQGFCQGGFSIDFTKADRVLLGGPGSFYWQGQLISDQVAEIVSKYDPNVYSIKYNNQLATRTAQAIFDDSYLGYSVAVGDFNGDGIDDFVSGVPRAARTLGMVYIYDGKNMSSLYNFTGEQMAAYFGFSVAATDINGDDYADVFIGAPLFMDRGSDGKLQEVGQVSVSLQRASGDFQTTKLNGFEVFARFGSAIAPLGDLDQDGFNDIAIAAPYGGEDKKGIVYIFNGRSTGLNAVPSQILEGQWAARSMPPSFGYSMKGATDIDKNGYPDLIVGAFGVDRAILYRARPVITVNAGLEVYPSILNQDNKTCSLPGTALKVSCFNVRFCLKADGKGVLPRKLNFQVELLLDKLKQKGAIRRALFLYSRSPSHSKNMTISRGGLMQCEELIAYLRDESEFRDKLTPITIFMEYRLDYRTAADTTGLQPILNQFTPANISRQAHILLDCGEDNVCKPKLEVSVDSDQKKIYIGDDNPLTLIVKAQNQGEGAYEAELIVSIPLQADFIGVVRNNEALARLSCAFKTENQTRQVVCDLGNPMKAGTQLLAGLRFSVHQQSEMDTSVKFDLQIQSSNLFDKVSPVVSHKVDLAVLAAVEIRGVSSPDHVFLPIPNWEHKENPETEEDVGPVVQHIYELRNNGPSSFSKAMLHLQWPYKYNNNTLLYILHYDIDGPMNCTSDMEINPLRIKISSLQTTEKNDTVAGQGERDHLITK
T1 sequence (P06756 891-1048 partner limits assumed): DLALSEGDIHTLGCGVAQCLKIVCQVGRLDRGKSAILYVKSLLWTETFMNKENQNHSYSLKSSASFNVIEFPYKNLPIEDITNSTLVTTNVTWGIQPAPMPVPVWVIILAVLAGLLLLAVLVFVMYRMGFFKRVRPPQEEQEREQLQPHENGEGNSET
T1 sequence (P05106 27-788): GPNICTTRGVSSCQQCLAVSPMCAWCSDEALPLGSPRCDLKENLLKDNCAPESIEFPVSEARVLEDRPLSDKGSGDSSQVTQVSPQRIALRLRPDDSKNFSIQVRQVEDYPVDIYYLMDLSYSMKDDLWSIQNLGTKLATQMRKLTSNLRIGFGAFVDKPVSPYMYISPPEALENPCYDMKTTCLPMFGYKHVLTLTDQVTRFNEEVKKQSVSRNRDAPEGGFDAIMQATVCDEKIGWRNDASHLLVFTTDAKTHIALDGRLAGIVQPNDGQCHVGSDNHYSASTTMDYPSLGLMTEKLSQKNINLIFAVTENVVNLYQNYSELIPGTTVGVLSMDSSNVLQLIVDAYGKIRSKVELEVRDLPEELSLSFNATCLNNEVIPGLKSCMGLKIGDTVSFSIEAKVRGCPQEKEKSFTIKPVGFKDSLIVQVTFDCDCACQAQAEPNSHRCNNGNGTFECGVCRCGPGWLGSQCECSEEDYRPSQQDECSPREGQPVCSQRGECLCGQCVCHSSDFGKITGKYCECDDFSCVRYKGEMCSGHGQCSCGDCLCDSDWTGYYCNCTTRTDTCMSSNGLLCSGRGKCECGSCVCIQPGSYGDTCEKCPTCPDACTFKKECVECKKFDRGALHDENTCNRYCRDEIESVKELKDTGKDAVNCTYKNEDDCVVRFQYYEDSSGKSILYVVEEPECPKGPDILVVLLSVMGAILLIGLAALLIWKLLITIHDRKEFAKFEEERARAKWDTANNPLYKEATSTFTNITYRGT
Experimental: FIG. 4. Patient derived ligand mimetic scFvs Bc-12 and Bc-15 against activated αvβ3 are internalized and bind to breast cancer cells in human plasma and affect breast cancer survival. Flow cytometric analysis with human metastatic breast cancer cells (BMS) isolated from a patient blood sample. All binding and washing steps were done in fresh human plasma prepared from blood anticoagulated with 50 nM PPACK.
Flow cytometry. scFv binding to human tumor cells was analyzed by flow cytometry, initially with cloned scFv phage and then with purified scFv protein. Per sample, 2×10^5 tumor cells were blocked with goat serum and incubated either with scFv phage (2-5×10^10) (1 h at RT) followed by mouse anti-M13 mAb (Serotec) (30 min on ice) and goat FITC-anti mouse (Pierce) (30 min on ice), or with purified scFv (1.25 to 40 μg/ml, routinely 10 to 15 μg/ml) (45 min on ice), followed by mouse anti-FLAG mAb M2 (Sigma) (30 min on ice) and goat FITC-anti mouse. […] All samples were counter stained with propidium iodide (PI) and analyzed on a Becton-Dickinson FACScan, with live gate set to exclude PI positive cells.
Antimetastatic activity of scFv antibodies against activated αvβ3 inhibit hematogenous breast cancer metastasis in vivo. […] The antibodies bound the cells in a saturable manner with half maximal binding measured at 40 nM scFv (1 μg/ml) (FIG. 4).

BMS breast cancer cells = assay: Antibody internalization (confocal microscopy); type: cell-based, human; details: FITC-labeled scFv, permissive temperature (37° C.)
Experimental: FIGS. 3A, 3B, 3C, 3D, 3E. scFv Bc-12 and Bc-15 inhibit αvβ3 mediated adhesive breast cancer cell functions. (A) Adhesion of BMS human breast cancer cells to fibrinogen (Fg), vitronectin (VN) or type I collagen (Col I) in the absence or presence of 3 μM Bc-12, Bc-15 or their RGE mutants Mut-12, Mut-15, compared to 200 μM GRGDSPK peptide (SEQ ID NO: 11). Protein coating concentrations: 10 μg/ml (VN, Col I) or 20 μg/ml (Fg). Adhesion time: 30 min at 37° C. (B) Effect of scFvs on haptotactic BMS cell migration toward a fibrinogen substrate (16 hrs at 37° C. in transwell chambers with or without 2 μM Bc-12, Bc-15 or their RGE mutants Mut-12 or Mut-15, compared to 200 μM GRGDSPK peptide) (SEQ ID NO: 11). (C) Effect of scFvs on breast cancer cell arrest during blood flow. […] Tumor cell adhesion was quantified by image acquisition at 30 predefined positions during blood flow. Left: representative images of platelet signal (thrombi, green fluorescence) and tumor cell signal (red fluorescence) at identical x,y positions. […]
Antibody internalization. Breast cancer cells grown in chamber slide wells were incubated with 20 μg/ml FITC-labeled scFv in serum free EMEM for 3 h either at 4° C. or 37° C., washed 10 times, fixed and permeabilized with 95% ethanol, stained with propidium iodide, mounted in antifade solution, and analyzed with a laser scanning confocal microscope.

half maximal binding (tumor cell integrin αvβ3): 1 µg/mL
EC50 (tumor cell integrin αvβ3; read-out: half maximal binding): 40 nM
B1: Bc-12: patient derived human scFv antibody against activated αvβ3 with RGD motif in CDR-H3; cDNA ATCC PTA-6303 (protein)
scFv: MAQVQLVQSGAEVKKPGASVKVSCKASGYTFSNYGITWVRQAPGQGLEWMGWINNGNTHYAQKFQGRVTMTTDTSTSTAYMELRSLRSDDTAVYYCARDPRGDDEPYWGQGTLVTVSSGGGGSGGGGSGGGGSEIVLTQSPLSLPVTLGQPASISCRSSQNLVYSDGNTYLSWFQQRPGQSPRRLIYKVSNRDSGVPDRFSGSGSGTDFTLKISRVEAEDIGVYYCMQGTHWPPRTFGQGTKVEIKRGLGGLVDYKDDDDK
binding and internalization by adherent cells (BMS breast cancer cells): efficiently bound and readily internalized
